# Experimental data published in article PMC11252331.
# Columns and labels:
# [1] = molecular target: ΔN HTRA1 D174R-S328A (proteolytically inactive corrector variant) (human) (UniProt Q92743); assay: SEC-MALS; Superdex 200 Increase 10/300, 2x PBS, 56 µl of 10 mg/ml protein (273 µM monomer equivalent; A173T 6.5 mg/ml, 178 µM); single proteins or D174R-S328A + R274Q mixed at a 1:1 ratio
# [2] = molecular target: untagged ∆N∆PDZ HTRA1 R274Q used for NMR DOSY (human) (UniProt Q92743); assay: NMR DOSY; 100 µM HTRA1 alone, 50 mM potassium phosphate pH 6.7, 10% D2O, 25 °C
# [3] = molecular target: VDAC2 peptide (C-terminus of Voltage Dependent Anion-selective Channel isoform 2); assay: VDAC2 titration of cleavage rate of peptidic fluorescence-quenched substrate, fitted to the hyperbolic weak-binding equation; conditions: substrate 2 µM; HTRA1 wt 30 nM; R274Q 300 nM
# [4] = molecular target: ΔN HTRA1 wild type (human HTRA1 lacking the N-terminal IGFBP7-like fragment) (human) (UniProt Q92743); assay: native MS; binding experiments, 5 µM protein with VDAC2 peptide added at molar ratios, 200 mM ammonium acetate pH 6.8
# [5] = molecular target: ΔN HTRA1 wild type (human HTRA1 lacking the N-terminal IGFBP7-like fragment) (human) (UniProt Q92743); assay: cross-linking; 0.5 µM HTRA1, 50 mM NaPi, 50 mM NaCl pH 8.0, 37 °C, 0.5% glutaraldehyde 2 min; silver staining or Western blot; single proteins or mixtures
# [6] = molecular target: ΔN HTRA1 wild type (human HTRA1 lacking the N-terminal IGFBP7-like fragment) (human) (UniProt Q92743); assay: SEC; analytical SEC, Agilent AdvanceBio SEC 300 Å column, 2x PBS, 10 µl of 10 mg/ml protein (273 µM monomer equivalent; A173T 6.5 mg/ml, 178 µM); single proteins or mixtures
# [7] = molecular target: ΔN HTRA1 wild type (human HTRA1 lacking the N-terminal IGFBP7-like fragment) (human) (UniProt Q92743); assay: SEC-MALS; Superdex 200 Increase 10/300, 2x PBS, 56 µl of 10 mg/ml protein (273 µM monomer equivalent; A173T 6.5 mg/ml, 178 µM); single proteins or D174R-S328A + R274Q mixed at a 1:1 ratio
# ΔN HTRA1 A252T (human) [8] = molecular target: ΔN HTRA1 A252T (human) (UniProt Q92743); assay: cross-linking; 0.5 µM HTRA1, 50 mM NaPi, 50 mM NaCl pH 8.0, 37 °C, 0.5% glutaraldehyde 2 min; silver staining or Western blot; single proteins or mixtures
# ΔN HTRA1 A252T (human) [9] = molecular target: ΔN HTRA1 A252T (human) (UniProt Q92743); assay: SEC; analytical SEC, Agilent AdvanceBio SEC 300 Å column, 2x PBS, 10 µl of 10 mg/ml protein (273 µM monomer equivalent; A173T 6.5 mg/ml, 178 µM); single proteins or mixtures
# ΔN HTRA1 A252T (human) [10] = molecular target: ΔN HTRA1 A252T (human) (UniProt Q92743); assay: SEC-MALS; Superdex 200 Increase 10/300, 2x PBS, 56 µl of 10 mg/ml protein (273 µM monomer equivalent; A173T 6.5 mg/ml, 178 µM); single proteins or D174R-S328A + R274Q mixed at a 1:1 ratio
substance,measurement,setting,value
ΔN HTRA1 D174R-S328A (proteolytically inactive corrector variant) (from UniProt Q92743 158-480) (domain or fragment),stoichiometry N,[1],3
untagged ∆N∆PDZ HTRA1 R274Q used for NMR DOSY (from UniProt Q92743 158-375) (domain or fragment),stoichiometry N,[2],3
ΔN HTRA1 wild type (human HTRA1 lacking the N-terminal IGFBP7-like fragment) (from UniProt Q92743) R274Q,Kd,[3],12.1 µM
ΔN HTRA1 wild type (human HTRA1 lacking the N-terminal IGFBP7-like fragment) (from UniProt Q92743 158-480) (domain or fragment),stoichiometry N,[4],3
same,stoichiometry N,[5],3
same,stoichiometry N,[6],3
same,stoichiometry N,[7],3
ΔN HTRA1 A252T (from UniProt Q92743 158-480) (domain or fragment),stoichiometry N,ΔN HTRA1 A252T (human) [8],3
same,stoichiometry N,ΔN HTRA1 A252T (human) [9],3
same,stoichiometry N,ΔN HTRA1 A252T (human) [10],3
